± gives the standard error. For some of these results: This sample holds only a part of the variants without activity.
B1: glmS ribozyme (parent)
chain: AUAAAAGCGCCAGAACUACAGAAAUGUAGUUGACGAGGAGGAGGUUUAUCGAAUUUUCGGCGGAUGCCUCCAAA

Key:
Settings in all cases: with glucosamine-6-phosphate
glucosamine-6-phosphate [1] = variants of: B1; experiment: kcat; higher = faster cleavage; RNA array
Method in brief: (§1)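 A hybridised Cy3 probe tracked barcoded ribozyme variants, transcribed in situ by E. coli RNA polymerase on sequenced MiSeq chips, at 37 °C. The variants received 40 μM to 10 mM glucosamine-6-phosphate in HEPES/KCl/Mg(OAc)2 buffer. kobs came from decay fits and kcat and KM from weighted Michaelis–Menten fits.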

glucosamine-6-phosphate [2] = variants of: B1; experiment: self-cleavage kobs at 2500 uM GlcN6P; higher = faster cleavage; RNA array
Method in brief: as §1

glucosamine-6-phosphate [3] = variants of: B1; experiment: self-cleavage kobs at 10000 uM GlcN6P; higher = faster cleavage; RNA array
Method in brief: as §1

glucosamine-6-phosphate [4] = variants of: B1; experiment: self-cleavage kobs at 640 uM GlcN6P; higher = faster cleavage; RNA array
Method in brief: as §1

glucosamine-6-phosphate [5] = variants of: B1; experiment: KM; higher = weaker cofactor use; RNA array
Method in brief: as §1

glucosamine-6-phosphate [6] = variants of: B1; experiment: self-cleavage kobs at 160 uM GlcN6P; higher = faster cleavage; RNA array
Method in brief: as §1

glucosamine-6-phosphate [7] = variants of: B1; experiment: self-cleavage kobs at 40 uM GlcN6P; higher = faster cleavage; RNA array
Method in brief: as §1

A52G U69A was tested, and the kcat (glucosamine-6-phosphate [1]) was 5.52e-05 ± 3e-06 s⁻¹, the “self-cleavage kobs at 2500 uM GlcN6P” value (glucosamine-6-phosphate [2]) was 5.1e-05 ± 1.7e-05 s⁻¹ and the “self-cleavage kobs at 10000 uM GlcN6P” value (glucosamine-6-phosphate [3]) was 5.51e-05 ± 8.5e-06 s⁻¹.

With G40C U46A the kcat (glucosamine-6-phosphate [1]) was 0.000264 ± 7.1e-05 s⁻¹, the “self-cleavage kobs at 640 uM GlcN6P” value (glucosamine-6-phosphate [4]) was 7.92e-05 ± 1.6e-05 s⁻¹ and the “self-cleavage kobs at 2500 uM GlcN6P” value (glucosamine-6-phosphate [2]) was 0.000286 ± 4.6e-05 s⁻¹. The “self-cleavage kobs at 10000 uM GlcN6P” value (glucosamine-6-phosphate [3]) was 0.000207 ± 3.1e-05 s⁻¹.

U30C U45A was tested, and the kcat (glucosamine-6-phosphate [1]) was 0.000449 ± 4.9e-05 s⁻¹, the KM (glucosamine-6-phosphate [5]) was 1150 ± 280 µM and the “self-cleavage kobs at 160 uM GlcN6P” value (glucosamine-6-phosphate [6]) was 5.04e-05 ± 1.7e-05 s⁻¹. For the same variant, the “self-cleavage kobs at 640 uM GlcN6P” value (glucosamine-6-phosphate [4]) was 0.000176 ± 3.8e-05 s⁻¹, the “self-cleavage kobs at 2500 uM GlcN6P” value (glucosamine-6-phosphate [2]) was 0.000235 ± 8.7e-05 s⁻¹ and the “self-cleavage kobs at 10000 uM GlcN6P” value (glucosamine-6-phosphate [3]) was 0.000418 ± 6e-05 s⁻¹.

With G29C G41C the kcat (glucosamine-6-phosphate [1]) was 1.23e-05 ± 4.8e-07 s⁻¹, the KM (glucosamine-6-phosphate [5]) was 2750 ± 290 µM and the “self-cleavage kobs at 160 uM GlcN6P” value (glucosamine-6-phosphate [6]) was < 1e-05 s⁻¹. For the same variant, the “self-cleavage kobs at 640 uM GlcN6P” value (glucosamine-6-phosphate [4]) was < 1e-05 s⁻¹.

C11A A39C was tested, and the kcat (glucosamine-6-phosphate [1]) was 3.87e-05 ± 5.2e-06 s⁻¹, the “self-cleavage kobs at 2500 uM GlcN6P” value (glucosamine-6-phosphate [2]) was 4.76e-05 ± 1.5e-05 s⁻¹ and the “self-cleavage kobs at 10000 uM GlcN6P” value (glucosamine-6-phosphate [3]) was 3.53e-05 ± 7.7e-06 s⁻¹.

For U46C U54C, the kcat (glucosamine-6-phosphate [1]) was 0.00487 ± 0.00041 s⁻¹, the KM (glucosamine-6-phosphate [5]) was 1870 ± 220 µM and the “self-cleavage kobs at 40 uM GlcN6P” value (glucosamine-6-phosphate [7]) was 0.000109 ± 2e-05 s⁻¹. The “self-cleavage kobs at 160 uM GlcN6P” value (glucosamine-6-phosphate [6]) was 0.000406 ± 8.6e-05 s⁻¹, the “self-cleavage kobs at 640 uM GlcN6P” value (glucosamine-6-phosphate [4]) was 0.00119 ± 0.00012 s⁻¹ and the “self-cleavage kobs at 2500 uM GlcN6P” value (glucosamine-6-phosphate [2]) was 0.0028 ± 0.00042 s⁻¹. For the same variant, the “self-cleavage kobs at 10000 uM GlcN6P” value (glucosamine-6-phosphate [3]) was 0.00438 ± 0.0011 s⁻¹.

With C11U A64G the kcat (glucosamine-6-phosphate [1]) was 0.00227 ± 0.00061 s⁻¹, the KM (glucosamine-6-phosphate [5]) was 1370 ± 580 µM and the “self-cleavage kobs at 40 uM GlcN6P” value (glucosamine-6-phosphate [7]) was 8.94e-05 ± 9.3e-06 s⁻¹. For the same variant, the “self-cleavage kobs at 160 uM GlcN6P” value (glucosamine-6-phosphate [6]) was 0.0002 ± 2.5e-05 s⁻¹, the “self-cleavage kobs at 640 uM GlcN6P” value (glucosamine-6-phosphate [4]) was 0.000741 ± 6.4e-05 s⁻¹ and the “self-cleavage kobs at 2500 uM GlcN6P” value (glucosamine-6-phosphate [2]) was 0.00108 ± 0.00014 s⁻¹. The “self-cleavage kobs at 10000 uM GlcN6P” value (glucosamine-6-phosphate [3]) was 0.00247 ± 0.00021 s⁻¹.

With G51U C67G the kcat (glucosamine-6-phosphate [1]) was < 1e-05 s⁻¹.

In the case of A15C G41U, the kcat (glucosamine-6-phosphate [1]) is reported as 0.000171 ± 7.6e-06 s⁻¹, the KM (glucosamine-6-phosphate [5]) is reported as 879 ± 120 µM and the “self-cleavage kobs at 640 uM GlcN6P” value (glucosamine-6-phosphate [4]) is reported as 7.33e-05 ± 2.3e-05 s⁻¹. The “self-cleavage kobs at 2500 uM GlcN6P” value (glucosamine-6-phosphate [2]) was 0.000137 ± 3.4e-05 s⁻¹ and the “self-cleavage kobs at 10000 uM GlcN6P” value (glucosamine-6-phosphate [3]) was 0.000154 ± 2.6e-05 s⁻¹.

With C16U A53U G66A C67U the kcat (glucosamine-6-phosphate [1]) was 0.00153 ± 0.0004 s⁻¹, the KM (glucosamine-6-phosphate [5]) was 755 ± 320 µM and the “self-cleavage kobs at 40 uM GlcN6P” value (glucosamine-6-phosphate [7]) was 8.2e-05 ± 1.8e-05 s⁻¹. For the same variant, the “self-cleavage kobs at 640 uM GlcN6P” value (glucosamine-6-phosphate [4]) was 0.000671 ± 0.00013 s⁻¹, the “self-cleavage kobs at 2500 uM GlcN6P” value (glucosamine-6-phosphate [2]) was 0.000968 ± 0.00031 s⁻¹ and the “self-cleavage kobs at 10000 uM GlcN6P” value (glucosamine-6-phosphate [3]) was 0.00215 ± 0.00061 s⁻¹.

In the case of C10G G62U, the kcat (glucosamine-6-phosphate [1]) is reported as < 1e-05 s⁻¹ and the “self-cleavage kobs at 40 uM GlcN6P” value (glucosamine-6-phosphate [7]) is reported as < 1e-05 s⁻¹.

U54A C61U was tested, and the kcat (glucosamine-6-phosphate [1]) was 3.19e-05 ± 4.4e-07 s⁻¹, the KM (glucosamine-6-phosphate [5]) was 1620 ± 86 µM and the “self-cleavage kobs at 40 uM GlcN6P” value (glucosamine-6-phosphate [7]) was < 1e-05 s⁻¹. The “self-cleavage kobs at 10000 uM GlcN6P” value (glucosamine-6-phosphate [3]) was 2.74e-05 ± 1e-05 s⁻¹.

For G13U C71U, the kcat (glucosamine-6-phosphate [1]) was 0.00114 ± 0.00015 s⁻¹, the KM (glucosamine-6-phosphate [5]) was 2020 ± 470 µM and the “self-cleavage kobs at 40 uM GlcN6P” value (glucosamine-6-phosphate [7]) was 2.24e-05 ± 7.7e-06 s⁻¹. For the same variant, the “self-cleavage kobs at 160 uM GlcN6P” value (glucosamine-6-phosphate [6]) was 0.000105 ± 1.7e-05 s⁻¹, the “self-cleavage kobs at 640 uM GlcN6P” value (glucosamine-6-phosphate [4]) was 0.000229 ± 3.7e-05 s⁻¹ and the “self-cleavage kobs at 2500 uM GlcN6P” value (glucosamine-6-phosphate [2]) was 0.000673 ± 8.2e-05 s⁻¹. For the same variant, the “self-cleavage kobs at 10000 uM GlcN6P” value (glucosamine-6-phosphate [3]) was 0.000946 ± 9.8e-05 s⁻¹.

With G29C A42G the kcat (glucosamine-6-phosphate [1]) was 0.00279 ± 0.00031 s⁻¹, the KM (glucosamine-6-phosphate [5]) was 1790 ± 300 µM and the “self-cleavage kobs at 40 uM GlcN6P” value (glucosamine-6-phosphate [7]) was 6.95e-05 ± 1e-05 s⁻¹. For the same variant, the “self-cleavage kobs at 160 uM GlcN6P” value (glucosamine-6-phosphate [6]) was 0.000209 ± 4e-05 s⁻¹, the “self-cleavage kobs at 640 uM GlcN6P” value (glucosamine-6-phosphate [4]) was 0.000724 ± 0.00013 s⁻¹ and the “self-cleavage kobs at 2500 uM GlcN6P” value (glucosamine-6-phosphate [2]) was 0.00144 ± 0.00025 s⁻¹. The “self-cleavage kobs at 10000 uM GlcN6P” value (glucosamine-6-phosphate [3]) was 0.00253 ± 0.00032 s⁻¹.

G13C C70G showed a kcat (glucosamine-6-phosphate [1]) of 2.09e-05 ± 5.8e-06 s⁻¹.

In the case of C67A C68U, the kcat (glucosamine-6-phosphate [1]) is reported as 0.000125 ± 1.7e-05 s⁻¹, the KM (glucosamine-6-phosphate [5]) is reported as 497 ± 200 µM and the “self-cleavage kobs at 160 uM GlcN6P” value (glucosamine-6-phosphate [6]) is reported as 3.25e-05 ± 7.3e-06 s⁻¹. For the same variant, the “self-cleavage kobs at 640 uM GlcN6P” value (glucosamine-6-phosphate [4]) was 6.61e-05 ± 5.3e-06 s⁻¹, the “self-cleavage kobs at 2500 uM GlcN6P” value (glucosamine-6-phosphate [2]) was 0.000126 ± 9.8e-06 s⁻¹ and the “self-cleavage kobs at 10000 uM GlcN6P” value (glucosamine-6-phosphate [3]) was 0.000106 ± 1e-05 s⁻¹.

Source: the supplement of paper PMC7125110
